Target: ClpP1(S98A) from Listeria monocytogenes (Listeria monocytogenes)
Assay: cryo-EM structure

**Q.** Which stoichiometry N does the source give for “ClpP1(S98A) from Listeria monocytogenes (natural protein)” here?
**A.** 7
